Consider 1 protein from PMC2826804 (Journal of molecular biology, 2009).

The data set deals with the molecule itself. Kind of data set: native gel or EMSA. Background: A gel shift assay detects complexes by their altered migration in electrophoresis.

B1: GST-LARP6 fusion protein (La ribonucleoprotein domain family, member 6) (natural protein, human, UniProt Q9BRS8 1-491, looked up)
chain: MAQSGGEARPGPKTAVQIRVAIQEAEDVDELEDEEEGAETRGAGDPARYLSPGWGSASEEEPSRGHSGTTASGGENEREDLEQEWKPPDEELIKKLVDQIEFYFSDENLEKDAFLLKHVRRNKLGYVSVKLLTSFKKVKHLTRDWRTTAHALKYSVVLELNEDHRKVRRTTPVPLFPNENLPSKMLLVYDLYLSPKLWALATPQKNGRVQEKVMEHLLKLFGTFGVISSVRILKPGRELPPDIRRISSRYSQVGTQECAIVEFEEVEAAIKAHEFMITESQGKENMKAVLIGMKPPKKKPAKDKNHDEEPTASIHLNKSLNKRVEELQYMGDESSANSSSDPESNPTSPMAGRRHAATNKLSPSGHQNLFLSPNASPCTSPWSSPLAQRKGVSRKSPLAEEGRLNCSTSPEIFRKCMDYSSDSSVTPSGSPWVRRRRQAEMGTQEKSPGTSPLLSRKMQTADGLPVGVLRLPRGPDNTRGFHGHERSRACV
Turning to B1, the binding result was “binds”.
